{"source": "patent US20220372130A1", "about": "(MITSUBISHI TANABE PHARMA, published 2022)"}
{"biological_target": "T1, human IL-33 protein (residue 112 to residue 270) (ATGen, ILC070) (human, UniProt O95760 112-270)", "T1 construct": "Bought protein (ATGen, ILC070); also called IL-33 (residue 112 to residue 270)", "T1 sequence": "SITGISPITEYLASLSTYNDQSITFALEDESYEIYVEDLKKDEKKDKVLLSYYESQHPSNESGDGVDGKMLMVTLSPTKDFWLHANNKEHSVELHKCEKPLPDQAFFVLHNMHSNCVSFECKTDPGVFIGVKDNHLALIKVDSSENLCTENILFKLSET", "assay": "KinExA", "procedure": "Five types of human IL-33 antibodies (A10-1C04, A23-1A05, A25-2CO2, A25-3H04 and A26-1F02) along with mouse sST2-Fc, which is a fusion protein of mouse ST2 and human IgG1 constant region, were prepared with recombinant CHO cells (WO 2015/099175).", "units": {"Kd": "pM"}}
{"binder": "A25-2C02 (antibody, human IgG1, lambda, V domains shown, Prepared with recombinant CHO cells; constant region said to be preferably human IgG1; also called A25-2CO2; human IL-33 antibody) VH: EVQLLESGGGLVQPGGSLRLSCAASGFTFSNYYMHWVRQAPGKGLEWVSSISARSSYIYYADSVKGRFTISRDNSKNTLYLQMNSLRAEDTAVYYCARLATRNNAFDIWGQGTLVTVSS VL: QSVLTQPPSASGTPGQRVTISCSGSSSNIGRNAVNWYQQLPGTAPKLLIYASNMRVSGVPDRFSGSKSGTSASLAISGLRSEDEADYYCWAWDDSQKVGVFGGGTKLTVLG", "Kd": 0.7}
{"binder": "A23-1A05 (antibody, human IgG1, lambda, V domains shown, Prepared with recombinant CHO cells; constant region said to be preferably human IgG1; also called human IL-33 antibody; human anti-IL-33 monoclonal antibody) VH: EVQLLESGGGLVQPGGSLRLSCAASGFTFSNYYMHWVRQAPGKGLEWVSSISARSRYHYYADSVKGRFTISRDNSKNTLYLQMNSLRAEDTAVYYCARLATRHNAFDIWGQGTLVTVSS VL: QSVLTQPPSASGTPGQRVTISCSGSSSNIGNNAVSWYQQLPGTAPKLLIYASNMRVIGVPDRFSGSKSGTSASLAISGLRSEDEADYYCGAWDDSQKALVFGGGTKLTVLG", "Kd": 195}
{"binder": "A26-1F02 (antibody, human IgG1, lambda, V domains shown, Prepared with recombinant CHO cells; constant region said to be preferably human IgG1; also called human IL-33 antibody; human anti-IL-33 monoclonal antibody) VH: EVQLLESGGGLVQPGGSLRLSCAASGFTFSNYYMHWVRQAPGKGLEWVSSISARSSYLYYADSVKGRFTISRDNSKNTLYLQMNSLRAEDTAVYYCARLATRHVAFDIWGQGTLVTVSS VL: QSVLTQPPSASGTPGQRVTISCSGSSSNIGNNAVNWYQQLPGTAPKLLIYASNMRRPGVPDRFSGSKSGTSASLAISGLRSEDEADYYCEAWDDSQKAVVFGGGTKLTVLG", "Kd": 5.3}
{"binder": "A25-3H04 (antibody, human IgG1, lambda, V domains shown, Prepared with recombinant CHO cells; constant region said to be preferably human IgG1; also called human IL-33 antibody; human anti-IL-33 monoclonal antibody) VH: EVQLLESGGGLVQPGGSLRLSCAASGFTFSRYYMHWVRQAPGKGLEWVSSISAQSSHIYYADSVEGRFTISRDNSKNTLYLQMNSLRAEDTAVYYCARLATRQNAFDIWGQGTLVTVSS VL: QSVLTQPPSASGTPGQRVTISCSGSSSNIGRNAVNWYQQLPGTAPKLLIYASNMRRSGVPDRFSGSKSGTSASLAISGLRSEDEADYYCSAWDDSQKVVVFGGGTKLTVLG", "Kd": 7.7}
{"binder": "A10-1C04 (antibody, human IgG1, lambda, V domains shown, Prepared with recombinant CHO cells; constant region said to be preferably human IgG1; also called human IL-33 antibody; human anti-IL-33 monoclonal antibody) VH: EVQLLESGGGLVQPGGSLRLSCAASGFTFSDYYMNWVRQAPGKGLEWVSSISRYSSYIYYADSVKGRFTISRDNSKNTLYLQMNSLRAEDTAVYYCARDIGGMDVWGQGTLVTVSS VL: QSVLTQPPSASGTPGQRVTISCTGSSSNIGAVYDVHWYQQLPGTAPKLLIYRNNQRPSGVPDRFSGSKSGTSASLAISGLRSEDEADYYCQTYDSSRWVFGGGTKLTVLG", "Kd": 100}
